Experimental data from paper PMC6739322, “The molecular basis of chaperone-mediated interleukin 23 assembly control” (Nature Communications, 2019).

Molecular target: T1, IL-12β (purified alone) (human, UniProt P29460 23-328)
T1 construct: interleukin-12 subunit beta (IL-12β), human; The C-terminal His-tag has a TEV cleavage site and is separated by a GS linker, so residues may be left after cleavage; also called unlabeled IL-12β; source: ExpiCHO, transiently transfected, purified from supernatant (HisTrap, TEV, SEC); not shown: His-tag, C-terminal, cleaved
T1 sequence (looked up): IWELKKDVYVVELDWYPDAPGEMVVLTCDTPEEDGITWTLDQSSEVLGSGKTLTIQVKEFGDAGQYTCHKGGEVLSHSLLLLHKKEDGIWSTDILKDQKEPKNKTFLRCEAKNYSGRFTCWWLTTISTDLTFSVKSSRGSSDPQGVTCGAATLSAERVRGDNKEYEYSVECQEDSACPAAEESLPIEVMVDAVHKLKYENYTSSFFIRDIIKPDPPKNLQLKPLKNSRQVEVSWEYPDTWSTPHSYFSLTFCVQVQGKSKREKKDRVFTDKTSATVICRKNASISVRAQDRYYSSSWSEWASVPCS
Assay: NMR titration; 1H,15N HSQC of 15N-labelled IL-23α^VVS (100 μM) without and with a two-fold molar excess of unlabeled IL-12β; 10 mM KPi pH 7.5, 298 K
Conditions: both partners purified

- binding result: binds
B1: IL-23α^C14,22V,C54S (purified) (natural protein, human)
chain: RAVPGGSSPAWTQVQQLSQKLVTLAWSAHPLVGHMDLREEGDEETTNDVPHIQSGDGCDPQGLRDNSQFCLQRIHQGLIFYEKLLGSDIFTGEPSLLPDSPVGQLHASLLGLSQLLQPEGHHWETQQIPSLSPSQPWQRLLLRFKILRSLQAFVAVAARVFAHGAATLSP
notes: interleukin-23 subunit alpha (IL-23α), human; The His-tag has a TEV site and is separated by a 2x GS linker, so residues may be left after cleavage; The protein was 15N-labelled for NMR; The internal disulfide C58-C70 is formed; also called IL-23α^VVS; not shown: His-tag, N-terminal, cleaved
